Measured values as given in paper doi:10.1101/2023.12.15.571702.

Target: piperazate synthase PipS, C-terminal His6-tagged (holo-PipS) (Streptomyces griseus subsp. griseus NRRL F-5144)
Test: crystal structure

piperazate synthase PipS, C-terminal His6-tagged (holo-PipS) (enzyme)
stoichiometry N: 2
